Data taken from patent US20260201058A1 (SICHUAN HUIYU PHARMACEUTICAL, published 2026).

How the values were obtained:
[1] = biological target: T1, monkey PD-L1 (Cyno-PD-L1) on cells (monkey (cyno)); assay: flow cytometry competition on 293F-cyno PD-L1 cells, competitor monkey PD-1-hFc 1.25 ug/mL
T1 construct: whole, on cells; also called CHO-cynoPDL1; 293F-cyno PD-L1 cells
Description: (§1) After washing with PBS, a flow cytometer was used for detection. IC₅₀ was fitted with experimental data by GraphPad Prism.

[2] = biological target: T2, human PD-L1 on GS-C2 cells (cells overexpressing human PD-L1, GenScript, M00613) (human, UniProt Q9NZQ7 19-290); assay: flow cytometry competition on GS-C2 cells, competitor human PD-1-mFc 1.25 ug/mL
T2 construct: whole, on cells; also called human PD-L1 cells
Description: as §1

[3] = biological target: T2, human PD-L1 on GS-C2 cells (cells …); assay: cell-based or functional assay
[4] = biological target: T3, human PD-L1 protein (ACRO, PD1-H5258) (human, UniProt Q9NZQ7 19-238); assay: SPR (Carterra LSA), nanobody on NiHC200M chip via His-Tag, PD-L1 as analyte
T3 construct: Bought protein; also called Human PDL1-Fc
Description: The measurement was conducted using a capture kinetics process. The test antibody was immobilized on the surface of the NiHC200M chip via His-Tag. After several rounds of blank buffer injection and stabilizing the detection baseline, human PD-L1 protein was injected as the analyte. Each round of injection consisted of 2 minutes of baseline, 8 minutes of binding, and 20 minutes of dissociation. After subtracting the reference point and zero concentration signal (Double Reference) from the original measurement data, the binding curve was fitted by Carterra LSA Kinetics software and the kinetic parameters were calculated.

[5] = biological target: T2, human PD-L1 on GS-C2 cells (cells …); assay: flow cytometry on GS-C2 cells
Description: Then PE-labeled goat anti-Flag fluorescent secondary antibody was added, and incubated on ice for 30 min. After washing with PBS, a flow cytometer was used for detection. EC₅₀ was fitted with the experimental data by GraphPad Prism.

T2 sequence (Q9NZQ7 19-290, one chain of several): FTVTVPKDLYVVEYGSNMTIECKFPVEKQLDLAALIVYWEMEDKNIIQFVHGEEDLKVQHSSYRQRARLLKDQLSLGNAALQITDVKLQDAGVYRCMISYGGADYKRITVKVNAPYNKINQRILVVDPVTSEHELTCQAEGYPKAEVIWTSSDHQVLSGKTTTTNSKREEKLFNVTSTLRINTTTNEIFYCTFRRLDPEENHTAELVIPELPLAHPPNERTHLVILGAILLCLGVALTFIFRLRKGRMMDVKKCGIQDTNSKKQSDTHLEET
T3 sequence (Q9NZQ7 19-238): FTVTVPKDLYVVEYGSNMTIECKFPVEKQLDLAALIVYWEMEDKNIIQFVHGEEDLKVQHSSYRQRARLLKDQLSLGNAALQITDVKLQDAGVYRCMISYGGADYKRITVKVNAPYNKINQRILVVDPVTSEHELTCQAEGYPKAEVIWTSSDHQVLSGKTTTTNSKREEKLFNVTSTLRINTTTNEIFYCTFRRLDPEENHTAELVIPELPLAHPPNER

IC50 [1]: 0.627 nM
IC50 [2]: 0.396 nM
EC50 (nM), blocking of T cell PD-1/PD-L1 signaling pathway (GS-C2 cells with Jurket-NFAT-PD1 cells, luciferase) [3]: 15.3 nM
Kd [4]: 0.0243 nM
EC50 [5]: 0.739 nM
B1: 260-7-B11 nanobody (VHH)
VHH: EVQLVESGGGLVQAGGSLRLSCAASGGTFLTYGMGWFRQAPGKEREFVAAINWSGSMTNYADSVKGRSTISRDNARNTVYLQMISLKPEDTAVYYCAAKTGAVAYIQKNEYDYWGQGTQVTVSS
notes: Prokaryotically expressed VHH
